Target: EBVgp350/220 wild type (full length, BLLF1, EBV strain B95-8) (Epstein-Barr virus strain B95-8) (UniProt P03200)
Assay: cell-based or functional assay

Sequence of UniProt P03200 (P03200 whole entry): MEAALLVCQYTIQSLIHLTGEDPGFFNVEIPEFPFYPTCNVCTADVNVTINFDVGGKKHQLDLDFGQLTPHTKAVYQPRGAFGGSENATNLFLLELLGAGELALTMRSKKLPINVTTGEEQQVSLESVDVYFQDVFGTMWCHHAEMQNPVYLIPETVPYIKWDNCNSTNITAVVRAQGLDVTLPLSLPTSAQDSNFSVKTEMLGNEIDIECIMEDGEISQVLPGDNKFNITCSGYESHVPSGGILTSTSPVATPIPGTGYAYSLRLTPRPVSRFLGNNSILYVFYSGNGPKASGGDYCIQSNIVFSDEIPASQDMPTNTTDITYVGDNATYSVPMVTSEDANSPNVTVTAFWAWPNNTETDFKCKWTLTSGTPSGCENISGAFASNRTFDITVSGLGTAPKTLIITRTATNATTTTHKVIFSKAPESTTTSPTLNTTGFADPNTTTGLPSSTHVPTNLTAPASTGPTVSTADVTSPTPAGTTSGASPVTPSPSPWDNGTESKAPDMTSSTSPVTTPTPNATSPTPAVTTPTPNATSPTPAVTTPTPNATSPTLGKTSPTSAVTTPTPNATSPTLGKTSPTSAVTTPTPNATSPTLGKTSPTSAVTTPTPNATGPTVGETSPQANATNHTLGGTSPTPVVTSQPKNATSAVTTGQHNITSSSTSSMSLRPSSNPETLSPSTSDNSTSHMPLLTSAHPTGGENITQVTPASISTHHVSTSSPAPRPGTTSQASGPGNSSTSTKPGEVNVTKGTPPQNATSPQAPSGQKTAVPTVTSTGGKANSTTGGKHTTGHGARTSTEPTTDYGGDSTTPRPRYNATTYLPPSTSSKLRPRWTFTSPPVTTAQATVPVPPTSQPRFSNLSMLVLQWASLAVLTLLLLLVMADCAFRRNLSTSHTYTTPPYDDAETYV

Row | Substance | percent fluorescent (EGFP+) Raji cells after infection with EGFP-EBV pre-incubated with the antibody [%] | percent of EGFP+ Raji cells post-infection [%]
1 | monoclonal antibody mAb-2L10 anti-gp350/220 | 27 | 25
2 | monoclonal antibody mAb-72A1 anti-gp350/220 | 1 | –

Source: patent US20200038505A1
